Percent of transformants surviving on selective medium and relative β-galactosidase activity data for one substance are collected here from PMC3877365.

Assay [1] deals with BCRZFP-orfA fusion protein (walleye dermal sarcoma virus orfA protein fused to the BCR-ABL zinc finger protein) (walleye dermal sarcoma virus (WDSV)). Nature of the assay: two-hybrid; ZFN-Y2H: bait fused to BCR-ZFP, prey fused to FokI, co-transformed into AH109 carrying the reporter pADH-Gal4-BS; growth on SD plates lacking histidine and adenine, 30°C, at least three days; colonies counted against non-selective plates; spotting of dilutions.

Assay [2] shares this target. In words: two-hybrid; ZFN-Y2H, LacZ reporter: relative β-galactosidase activity (ONPG assay) of colonies in liquid medium, wild-type Gal4 (pADH-Gal4) set to 100%.

FokI-E2F5 fusion protein (human E2F5 fused to the FokI nuclease domain) (natural protein), sequence (Q15329 whole entry, the tested form may be a part): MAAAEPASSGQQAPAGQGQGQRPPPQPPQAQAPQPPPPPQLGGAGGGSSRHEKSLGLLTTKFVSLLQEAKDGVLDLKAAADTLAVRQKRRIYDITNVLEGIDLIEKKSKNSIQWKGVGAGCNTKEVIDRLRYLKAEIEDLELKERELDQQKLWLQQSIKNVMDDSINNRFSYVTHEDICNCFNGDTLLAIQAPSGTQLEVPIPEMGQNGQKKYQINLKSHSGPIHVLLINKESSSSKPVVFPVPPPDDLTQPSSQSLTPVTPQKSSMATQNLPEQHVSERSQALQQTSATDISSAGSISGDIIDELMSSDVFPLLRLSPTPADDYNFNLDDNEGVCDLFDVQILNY
BCRZFP-orfA fusion protein (walleye dermal sarcoma virus orfA protein fused to the BCR-ABL zinc finger protein) (walleye dermal sarcoma virus (WDSV)), sequence (Q88939 whole entry, the tested form may be a part): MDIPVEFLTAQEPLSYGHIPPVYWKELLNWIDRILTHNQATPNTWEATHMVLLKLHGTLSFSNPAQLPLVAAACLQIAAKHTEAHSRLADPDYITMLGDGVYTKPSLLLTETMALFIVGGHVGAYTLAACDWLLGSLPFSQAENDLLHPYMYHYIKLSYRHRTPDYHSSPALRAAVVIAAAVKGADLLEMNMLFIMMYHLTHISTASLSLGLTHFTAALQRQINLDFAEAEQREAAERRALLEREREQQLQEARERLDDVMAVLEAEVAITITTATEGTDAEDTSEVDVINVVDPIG

On to “FokI-E2F5 fusion protein (human E2F5 fused to the FokI nuclease domain) (natural protein)”, for which the percent of transformants surviving on selective medium in assay [1] worked out at 22.5%. For the same substance, the relative β-galactosidase activity in assay [2] amounted to 84.3%.
